Reference: patent US9687560B2, “Skin-permeating peptide” (LG Household & Health Care Ltd., priority 2012, dated 2017)
Entries after “also recorded” stand apart in the source; their conditions may differ. Primed or numbered codes have the meaning given here. Ends that are not written are not given here. Dansyl′ = dansyl group

Key:
porcine skin [1] = test: Skin permeability test of skin permeable peptide derivative (Franz glass cell, fluorescence); type: in vitro ADME
Experimental: A dansyl group was linked at the C-terminus of each peptide having any one amino acid sequence of SEQ ID NOs. 1 to 10 which were selected in Example 1 so as to synthesize a derivative thereof, and it was intended to examine skin permeability thereof. In detail, each of the peptides was chemically synthesized, and then a dansyl group was added at the C-terminus of each peptide to synthesize a derivative thereof. As a control group, a peptide composed of the amino acid sequence of “[…] NO. 21)” which was prepared by adding a dansyl group at the C-terminus was used. […] Then, each derivative was added at the same concentration to the top of the cell, followed by incubation for 16 hours. After completion of the incubation, the amount of each derivative in the receiver at the bottom was measured using a victor fluorescence meter (340/520) to compare permeation degree (Table 2),

porcine skin [2] = test: Skin retention test of skin permeable peptide derivative (fluorescence); type: binding; conditions: for Fluorescent intensity (340/520), amount of peptide derivative remaining in porcine skin: 10 minutes incubation with skin, washed ten times; for Level of peptide derivative remaining in the skin (in words): compared to control group / among the 10 peptides
Experimental: To examine skin binding affinity of the derivatives synthesized in Example 3, the porcine skin was reacted with each of the derivatives, and the amount of the peptide dissolved in the surface was measured. In detail, the porcine skin was cut and put in a 1.5 ml tube, and 500 μl of TBS (1% BSA) was added thereto. […] After incubation, washing was performed using TBS (1% BSA) at 12,000 RPM for 1 minute ten times, and the porcine skin in which the reaction was completed was transferred to a 24-well plate. The amount of the peptide remaining on the surface was measured using a victor fluorescence meter (340/520) and compared (Table 4).

porcine skin [3] = test: Skin retention test of phage including skin permeable peptide (anti-M13 antibody-HRP, absorbance); type: binding; conditions: compared to control group / among the 10 peptides
From the text: Skin permeation mainly occurs by the mechanism of a diffusion of a substance dissolved in the components of the skin from the outermost layer to the innermost layers. Through this mechanism, an active ingredient can be effectively delivered throughout the skin. The skin surface is composed of corneocytes and intercellular materials. […] In this case, the product first binds to the skin, and then diffuses into the inner layer. Therefore, binding affinity of the selected phages to the skin was measured to examine the superiority of the peptides.
To measure the amount of the phage binding to the porcine skin, anti-M13 antibody-HRP conjugate was used. […] The porcine skin thus cut was put in a 1.5 ml tube, and 500 μl of TBS (1% BSA) was added thereto. […] Thereafter, they were washed using 1% BSA-containing TBS solution at 12,000 RPM for 1 minute 10 times. Subsequently, 500 μl of TBS solution containing anti-M13 antibody-HRP (Horseradish peroxidase) conjugate-containing 1% BSA was added, followed by incubation for 5 minutes. TBS solution containing 1% BSA was added to the culture, followed by washing at 12,000 RPM for 1 minute 10 times. The residual buffer was completely removed, and TMB solution (Tetramethylbenzidine solution, Amersham) was further added. […] Then, absorbance (450 nm) was measured to determine binding affinity between phage-skin.

Row | Substance | Fluorescence intensity (340/520), amount of porcine skin-permeating peptide derivative (porcine skin [1]) | Skin permeability of peptide derivative (in words) (porcine skin [1]) | Fluorescent intensity (340/520), amount of peptide derivative remaining in porcine skin (porcine skin [2]) | Level of peptide derivative remaining in the skin (in words) (porcine skin [2]) | Skin binding affinity / skin retention of phage (in words) (porcine skin [3])
1 | S3-1 peptide derivative: peptide NQTDHLFSTFIS (SEQ ID NO. 1) with a dansyl group added at the C-terminus (NQTDHLFSTFIS-{Dansyl′}) | 42000 | relatively excellent skin permeability | 143000 | relatively high level | –
2 | S3-2 peptide derivative: peptide NGSLNTHLAPIL (SEQ ID NO. 2) with a dansyl group added at the C-terminus (NGSLNTHLAPIL-{Dansyl′}) | 70000 | – | 260000 | relatively high level; also recorded: highest level | highest skin binding affinity
3 | S3-3 peptide derivative: peptide GGSIAASELEYY (SEQ ID NO. 3) with a dansyl group added at the C-terminus (GGSIAASELEYY-{Dansyl′}) | 19000 | relatively excellent skin permeability | 47000 | – | –
4 | S3-7 peptide derivative: peptide ELKQVVISDINH (SEQ ID NO. 4) with a dansyl group added at the C-terminus (ELKQVVISDINH-{Dansyl′}) | 25000 | relatively excellent skin permeability | 98000 | relatively high level | –
5 | S3-8 peptide derivative: peptide MVRDHPGLSGWT (SEQ ID NO. 5) with a dansyl group added at the C-terminus (MVRDHPGLSGWT-{Dansyl′}) | 22000 | relatively excellent skin permeability | 100000 | relatively high level | –
6 | S3-9 peptide derivative: peptide TSGISINKLPHT (SEQ ID NO. 6) with a dansyl group added at the C-terminus (TSGISINKLPHT-{Dansyl′}) | 18000 | relatively excellent skin permeability | 47000 | – | –
7 | S4-4 peptide derivative: peptide IFAALDYNLGRH (SEQ ID NO. 7) with a dansyl group added at the C-terminus (IFAALDYNLGRH-{Dansyl′}) | 4400 | – | 13200 | – | –
8 | S4-7 peptide derivative: peptide DMKWTLKEWMTH (SEQ ID NO. 8) with a dansyl group added at the C-terminus (DMKWTLKEWMTH-{Dansyl′}) | 8600 | – | 37600 | – | –
9 | S4-9 peptide derivative: peptide QIEKHVYFNASQ (SEQ ID NO. 9) with a dansyl group added at the C-terminus (QIEKHVYFNASQ-{Dansyl′}) | 16000 | relatively excellent skin permeability | 56000 | – | –
10 | S4-10 peptide derivative: peptide TNIPSLSGILMK (SEQ ID NO. 10) with a dansyl group added at the C-terminus (TNIPSLSGILMK-{Dansyl′}) | 9000 | – | 25000 | – | –
